In patent EP4714976A1 (Sunshine Lake Pharma Co., Ltd., dated 2026):
Where a chain is given by its changes, count along the chain named.

B1: 1A3 scFv displayed on phage (scFv)
scFv: QVQLQQPGAELVKPGASVKMSCKASGYTFASYNLHWVKQTPGQGLEWIGLIYPENGDTSYNQKFKGKATLTADKSSSTAYIQLSSLTSEDSAVYFCARGGFDYWGQGTTLTVSQGGGGSGGGGSGGGGSDIQMTQSPASLSASVGETVTITCGASENIYGALNWYQRKQGKSPQLLIYGATNLADGMSSRFSGSGSGRQYSLKISSLHPDDVATYYCQNVLSTPYTFGGGTKLEIK
B2: 3D7 scFv displayed on phage (scFv)
scFv: QVQLQQSGAELVKPGASVKMSCKASGYTFSFYNMHWVKRTPGRGLEWIGLIYPDNGDTSYNQKFKGKATLTADTSSSTAYMQLSSLTSEDSAVYYCARGGLDYWGQGTSLTVSSGGGGSGGGGSGGGGSEIVLTQSPASLAVSLGQRATISCKASQSVDYDGDSYMNWYQQKPGQPPKLLIYGISNRFSGVPDRFSGSGSGTDFTLKISTIKPEDLGMYYCLQGTHQPYTFGGGTKLEIK
B3: 2B1 scFv displayed on phage (scFv)
scFv: EVQLQQSGAELVKPGASVKMSCKASGYTFASYNLHWVKQTPGQGLEWIGLIYPENGDTSYNQKFKGKATLTADKSSSTAYIQLSSLTSEDSAVYFCARGGFDYWGQGTSLTVSSGGGGSGGGGSGGGGSDIQMIQSPASLSVSVGETVTITCRASENIYSNLAWYQQKQGKSPQLLVYNAKTLADGVPSRFSGSGSGTQYSLKINSLQPEDFGSYYCQHFWSTPYTFGGGTKLEIK
B4: 3C7-VH3-VL0 (antibody, human IgG1, kappa, V domains shown)
VH: QVQLVQSGAEVKKPGASVKVSCKASGYIFRNYYIHWVKQAPGQGLEWMGAIYPDNGDTSYNQRFKVRATLTADTSTSTVYMELSSLRSEDTAVYYCARAFTYWGQGTTVTVSS
VL: DIQMTQSPSSLSASVGDRVTITCRASENIYGALNWYQQKPGKAPKLLIYGATNLADGVPSRFSGSGSGTDFTLTISSLQPEDFATYYCQNVLSTPYTFGGGTKVEIKR
notes: humanized IgG1
B5: 3C7-VH3-VL1 (antibody, human IgG1, kappa, V domains shown)
VH: B4 VH
VL: B4 VL with R24G, F71Y, F83V
notes: humanized IgG1
B6: 3C7-VH3-VL2 (antibody, human IgG1, kappa, V domains shown)
VH: B4 VH
VL: B4 VL with R24G, Q38R, F71Y, V104L
notes: humanized IgG1
B7: 3C7-VH3-VL3 (antibody, human IgG1, kappa, V domains shown)
VH: B4 VH
VL: B4 VL with R24G, Q38R, A43S, F71Y, F83V, V104L
notes: humanized IgG1
B8: 3A8 scFv-Fc (Fc fusion)
chain: QVQLQQSGAELVKPGASVKMSCKASGYTFTIYNIHWVRQTPGQGLEWIGLIYPDNGDTSYNQKFKAKATLTADKSSSTAYMQLSSLTSEDSAVYYCARGGFDYWGQGTSLTVSSGGGGSGGGGSGGGGSDIVMTQSQKFMSTSVGDRVSVTCKASQNVGTNVAWYQQKPGQSPKALIYSASYRYSGVPDRFTGSGSGTDFTLTISNVQAEDLADYFCQQHYSTPYTFGGGTKLEMKESKYGPPCPPCPAPEAAGGPSVFLFPPKPKDTLMISRTPEVTCVVVDVSQEDPEVQFNWYVDGVEVHNAKTKPREEQFNSTYRVVSVLTVLHQDWLNGKEYKCKVSNKGLPSSIEKTISKAKGQPREPQVYTLPPSQEEMTKNQVSLTCLVKGFYPSDIAVEWESNGQPENNYKTTPPVLDSDGSFFLYSKLTVDKSRWQEGNVFSCSVMHEALHNHYTQKSLSLSLG
notes: scFv-Fc dimer
B9: 3D6 scFv-Fc (Fc fusion)
chain: QVQLQQSGAELVKPGASVKMSCKASGYTFRYYNMHWVKRTPGQGLEWIGLIYPDNGDTSYNQKFKGKATLTADTSSSTAYMQLSSLTSEDSAVYYCARGGLDYWGQGTSLTVSSGGGGSGGGGSGGGGSDIQMTQSPASLSVSVGETVTITCRASENIYSNLAWYQQKQGKSPQLLVYNAKTLADGVPSRFSGSGSGTQYSLKINSLQPEDFGSYYCQHFWSTPFTFGSGTKLELKESKYGPPCPPCPAPEAAGGPSVFLFPPKPKDTLMISRTPEVTCVVVDVSQEDPEVQFNWYVDGVEVHNAKTKPREEQFNSTYRVVSVLTVLHQDWLNGKEYKCKVSNKGLPSSIEKTISKAKGQPREPQVYTLPPSQEEMTKNQVSLTCLVKGFYPSDIAVEWESNGQPENNYKTTPPVLDSDGSFFLYSKLTVDKSRWQEGNVFSCSVMHEALHNHYTQKSLSLSLG
notes: scFv-Fc dimer
B10: 1C10 scFv-Fc (Fc fusion)
chain: B9 chain with Q132V, V142A, E156G, Y159H, S160N, N161Y, F225Y, S229G, L235M
notes: scFv-Fc dimer
B11: 3H9 scFv-Fc (Fc fusion)
chain: EIQLQQSGAELVKPGASVKMSCKASGYTFSFYNMHWVKRTPGQGLEWIGLIYPDNGDTSYNQKFKGKATLTADTSSSTAYMQLSSLTSEDSAVYYCARGGLDYWGQGTTLTVSSGGGGSGGGGSGGGGSDIVLTQSPASLSVSVGETVTITCRASENIYSNLAWYQQKQGKSPQLLVYAATNLADGVPSRFSGSGSGTQYSLKINSLQSEDFGSYYCQHFWGTPYTFGGGTKLELKESKYGPPCPPCPAPEAAGGPSVFLFPPKPKDTLMISRTPEVTCVVVDVSQEDPEVQFNWYVDGVEVHNAKTKPREEQFNSTYRVVSVLTVLHQDWLNGKEYKCKVSNKGLPSSIEKTISKAKGQPREPQVYTLPPSQEEMTKNQVSLTCLVKGFYPSDIAVEWESNGQPENNYKTTPPVLDSDGSFFLYSKLTVDKSRWQEGNVFSCSVMHEALHNHYTQKSLSLSLG
notes: scFv-Fc dimer
B12: 3B4 scFv-Fc (Fc fusion)
chain: EVQLQQSGADLVKPGASVKMSCKASGYTFSYYNMHWVRRTPGQGLEWIGLIYPDNGDTSYNQKFKGKATLTADTSSSTAYMQLSSLTSEDSAVYYCARGGLDYWGQGTTLTVSSGGGGSGGGGSGGGGSDIQMIQSPASMSASVGETVTITCGASENIYGALNWYQRKQGKSPQLLIYGATNLADGMSSRFSGSGSGRQYSLKISSLHPDDVATYYCQNVLSTPYTFGGGTKLEMKESKYGPPCPPCPAPEAAGGPSVFLFPPKPKDTLMISRTPEVTCVVVDVSQEDPEVQFNWYVDGVEVHNAKTKPREEQFNSTYRVVSVLTVLHQDWLNGKEYKCKVSNKGLPSSIEKTISKAKGQPREPQVYTLPPSQEEMTKNQVSLTCLVKGFYPSDIAVEWESNGQPENNYKTTPPVLDSDGSFFLYSKLTVDKSRWQEGNVFSCSVMHEALHNHYTQKSLSLSLG
notes: scFv-Fc dimer
B13: 3E3 scFv-Fc (Fc fusion)
chain: QVQLQQPGAVLVKPGASVRMSCKASGYTFPYYNVHWVKRTPGQGLEWIGLIYPDNGDTSYNQKFTGKATLTADTSSSTAYMQLSSLTSEDSAVYYCARGGLDYWGQGTTLTVSAGGGGSGGGGSGGGGSDVQITQSPASLSASVGETVTITCGASENIYGALNWYQRKQGKSPQLLIYGATNLADGMSSRFSGSGSGRQYSLKISSLHPDDVATYYCQNVLSTPYTFGGGTKLEIKESKYGPPCPPCPAPEAAGGPSVFLFPPKPKDTLMISRTPEVTCVVVDVSQEDPEVQFNWYVDGVEVHNAKTKPREEQFNSTYRVVSVLTVLHQDWLNGKEYKCKVSNKGLPSSIEKTISKAKGQPREPQVYTLPPSQEEMTKNQVSLTCLVKGFYPSDIAVEWESNGQPENNYKTTPPVLDSDGSFFLYSKLTVDKSRWQEGNVFSCSVMHEALHNHYTQKSLSLSLG
notes: scFv-Fc dimer
B14: 1G6 scFv-Fc (Fc fusion)
chain: EIQLQQSGAELVKPGASVKMSCKASGYTFRYYNMHWVKRTPGQGLEWIGLIYPDNGDTSYNQKFKGKATLTADTSSSTAYMQLSSLTSEDSAVYYCARGGLDYWGQGTSLTVSSGGGGSGGGGSGGGGSNIVMTQSHKFMSTSVGDRVSITCKASQDVNTDVAWYQQKPGQSPKLLIYSASYRYTGVPTRFTGSGSGTDFTFTISGVQAEDLADYYCQQHYNTPYTFGGGTKLELKESKYGPPCPPCPAPEAAGGPSVFLFPPKPKDTLMISRTPEVTCVVVDVSQEDPEVQFNWYVDGVEVHNAKTKPREEQFNSTYRVVSVLTVLHQDWLNGKEYKCKVSNKGLPSSIEKTISKAKGQPREPQVYTLPPSQEEMTKNQVSLTCLVKGFYPSDIAVEWESNGQPENNYKTTPPVLDSDGSFFLYSKLTVDKSRWQEGNVFSCSVMHEALHNHYTQKSLSLSLG
notes: scFv-Fc dimer

These binders were tested against T1, extracellular domain of FGFR2c protein (Example 1) (UniProt P21802 22-377) (assay: phage ELISA).
T1 construct: extracellular domain
T1 sequence (P21802 22-377): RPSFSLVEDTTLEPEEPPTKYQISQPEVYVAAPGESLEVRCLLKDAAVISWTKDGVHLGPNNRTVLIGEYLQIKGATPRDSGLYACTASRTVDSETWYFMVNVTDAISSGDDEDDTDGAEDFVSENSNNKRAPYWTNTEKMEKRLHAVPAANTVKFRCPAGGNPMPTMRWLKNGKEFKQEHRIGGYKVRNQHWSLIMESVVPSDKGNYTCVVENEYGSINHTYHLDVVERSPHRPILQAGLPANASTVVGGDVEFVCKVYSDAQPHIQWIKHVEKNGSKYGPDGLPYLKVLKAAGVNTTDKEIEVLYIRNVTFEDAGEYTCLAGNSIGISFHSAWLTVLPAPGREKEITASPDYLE

Row | Binder | OD (450 nm) value
1 | B1 | 0.212
2 | B2 | 0.037
3 | B3 | 0.049

Each binder was assayed against T2, human FGFR2b (Kaixia Biotechnology, catalog number FGR-HM1BB) (human, UniProt P21802-3 22-378) (assay: BLI, antibody on AHC2 sensor).
T2 construct: extracellular domain; bought; also called hFGFR2b; human FGFR2b protein
T2 sequence (P21802 other isoform, or with tags, fused parts or gaps): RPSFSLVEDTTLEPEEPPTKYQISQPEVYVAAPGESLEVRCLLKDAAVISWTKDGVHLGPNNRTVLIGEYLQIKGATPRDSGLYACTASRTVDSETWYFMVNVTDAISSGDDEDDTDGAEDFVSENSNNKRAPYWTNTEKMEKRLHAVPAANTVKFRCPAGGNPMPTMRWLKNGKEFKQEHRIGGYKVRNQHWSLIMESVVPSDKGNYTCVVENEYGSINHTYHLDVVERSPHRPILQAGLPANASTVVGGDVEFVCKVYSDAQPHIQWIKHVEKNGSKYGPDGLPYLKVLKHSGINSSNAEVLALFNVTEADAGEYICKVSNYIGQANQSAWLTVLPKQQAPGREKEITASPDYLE

Row | Binder | Kd | koff | kon
4 | B4 | 2.51 nM | 0.000831 s⁻¹ | 331000 M⁻¹ s⁻¹
5 | B5 | 2.46 nM | 0.00106 s⁻¹ | 429000 M⁻¹ s⁻¹
6 | B6 | 2.48 nM | 0.000829 s⁻¹ | 334000 M⁻¹ s⁻¹
7 | B7 | 2.43 nM | 0.000777 s⁻¹ | 320000 M⁻¹ s⁻¹

Target: T2, human FGFR2b (Kaixia Biotechnology, …)
Test: BLI, antibody on AHC2 sensor
Remark: another data set of the same source

Row | Binder | Kd | koff | kon
8 | B8 | 3.48 nM | 0.0009 s⁻¹ | 259000 M⁻¹ s⁻¹
9 | B9 | 15 nM | 0.00114 s⁻¹ | 75900 M⁻¹ s⁻¹
10 | B10 | 11.1 nM | 0.00278 s⁻¹ | 250000 M⁻¹ s⁻¹
11 | B11 | 5.69 nM | 0.00152 s⁻¹ | 267000 M⁻¹ s⁻¹
12 | B12 | 6.28 nM | 0.00195 s⁻¹ | 311000 M⁻¹ s⁻¹
13 | B13 | 8.18 nM | 0.00184 s⁻¹ | 225000 M⁻¹ s⁻¹
14 | B14 | 3.97 nM | 0.00149 s⁻¹ | 374000 M⁻¹ s⁻¹

These binders were tested against T2, human FGFR2b (Kaixia Biotechnology, …) (assay: ELISA, FGFR2b coated at 1 µg/ml).

Row | Binder | EC50
15 | B8 | 0.0278 µg/mL
16 | B9 | 0.0369 µg/mL
17 | B10 | 0.0159 µg/mL
18 | B11 | 0.0278 µg/mL
19 | B12 | 0.0166 µg/mL
20 | B13 | 0.0273 µg/mL
21 | B14 | 0.0235 µg/mL

The binders below were run against T3, recombinant cynomolgus monkey FGFR2b (cynomolgus monkey) (assay: ELISA, antibody 1ug/mL).
T3 construct: extracellular domain; bought; also called cynomolgus macaque FGFR2b

Row | Binder | OD (450 nm) value
22 | B9 | 3.4
23 | B10 | 3.3
24 | B11 | 3.29
25 | B12 | 3.32
26 | B13 | 3.09
27 | B14 | 3.24

Each binder was assayed against FGFR2c (acro) (UniProt P21802 22-377) (assay: ELISA, antibody 10 µg/mL).
FGFR2c (acro), sequence (P21802 22-377): as the sequence (P21802 22-377) above

Row | Binder | OD (450 nm) value
28 | B9 | 0.542
29 | B10 | 0.553
30 | B11 | 0.45
31 | B12 | 0.327

These binders were tested against T4, FGFR2b on KATO III cells (human, UniProt P21802-3 22-822) (assay: flow cytometry, KATO III cells).
T4 construct: whole, on cells; also called KATO III cells that overexpress FGFR2b
T4 sequence (P21802 other isoform, or with tags, fused parts or gaps): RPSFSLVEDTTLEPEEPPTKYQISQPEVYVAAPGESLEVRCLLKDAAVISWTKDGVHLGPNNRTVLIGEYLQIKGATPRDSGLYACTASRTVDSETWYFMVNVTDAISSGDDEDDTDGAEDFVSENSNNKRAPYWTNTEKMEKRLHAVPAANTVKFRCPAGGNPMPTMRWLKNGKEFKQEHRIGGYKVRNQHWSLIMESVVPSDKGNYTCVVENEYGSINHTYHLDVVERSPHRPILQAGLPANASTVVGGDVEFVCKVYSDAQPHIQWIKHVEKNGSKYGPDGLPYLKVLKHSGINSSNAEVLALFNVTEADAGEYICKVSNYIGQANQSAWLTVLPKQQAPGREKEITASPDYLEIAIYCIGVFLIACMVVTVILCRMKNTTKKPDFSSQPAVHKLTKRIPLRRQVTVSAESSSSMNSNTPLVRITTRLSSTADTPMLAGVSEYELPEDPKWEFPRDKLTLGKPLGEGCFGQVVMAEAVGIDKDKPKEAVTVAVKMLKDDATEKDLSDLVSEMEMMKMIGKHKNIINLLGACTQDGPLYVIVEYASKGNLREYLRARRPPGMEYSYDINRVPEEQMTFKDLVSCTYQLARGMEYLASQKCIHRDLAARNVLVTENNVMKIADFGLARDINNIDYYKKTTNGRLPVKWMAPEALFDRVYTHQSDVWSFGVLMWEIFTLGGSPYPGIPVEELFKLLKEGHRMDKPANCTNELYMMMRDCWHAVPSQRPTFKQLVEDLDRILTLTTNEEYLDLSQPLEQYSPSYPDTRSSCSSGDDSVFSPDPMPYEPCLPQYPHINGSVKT

Row | Binder | EC50
32 | B8 | 0.199 µg/mL
33 | B9 | 0.136 µg/mL
34 | B10 | 0.152 µg/mL
35 | B11 | 0.161 µg/mL
36 | B12 | 0.168 µg/mL
37 | B13 | 0.376 µg/mL
38 | B14 | 0.186 µg/mL

Target: T4, FGFR2b on KATO III cells
Test: flow cytometry, KATO III cells
Remark: another data set of the same source

Row | Binder | EC50
39 | B4 | 0.624 µg/mL
40 | B5 | 0.446 µg/mL
41 | B6 | 0.523 µg/mL
42 | B7 | 0.536 µg/mL

Target: T1, extracellular domain of FGFR2c protein …
Test: phage ELISA
Remark: another data set of the same source

Row | Binder | binding result
43 | B3 | no binding
